# According to publication doi:10.1101/2023.09.08.556779, “Molecular model of a bacterial flagellar motor in situ reveals a “parts-list” of protein adaptations to increase torque” (bioRxiv, 2024):
# Key:
# [1] = molecular target: PflB (C. jejuni 81–176 (endogenous in minicells)); test: cryo-EM structure; in situ single particle analysis of C. jejuni ΔflhG ΔflaAB minicells, C17 symmetry; focused refinement of the periplasmic scaffold and first basal disk ring to 7.9 Å; AlphaFold models docked or flexibly fitted
# [2] = molecular target: PflC, recombinant (C. jejuni); test: SEC + other: mass photometry; analytical SEC on ENrich SEC 650 in 1× PBS, calibrated with 15–600 kDa standards; mass photometry in PBS
# [3] = molecular target: the molecule itself; test: cryo-EM structure; in situ single particle analysis of C. jejuni ΔflhG ΔflaAB minicells, C17 symmetry; focused refinement of the periplasmic scaffold and first basal disk ring to 7.9 Å; AlphaFold models docked or flexibly fitted
# [4] = molecular target: the molecule itself; test: SEC + other: mass photometry; analytical SEC on ENrich SEC 650 in 1× PBS, calibrated with 15–600 kDa standards; mass photometry in PBS
molecule,measurement,setting,value
PflB (from UniProt A0A6F9L7Y3 1-820) (natural protein),stoichiometry N,[1],17
"PflC, recombinant (natural protein)",stoichiometry N,[2],2
"FliL (natural protein, FliL of Campylobacter jejuni 81–176; an arc of four in each asymmetric unit of the proximal disk; source: endogenous, C. jejuni 81–176 (minicells imaged in situ; lysate of formaldehyde-crosslinked cells)) MDEELENEETKKKKGGSLVIIIVILLFVLLLSIMGVIAWLISSSSSDESEVKEAPKEEAKADKPKVSAPTQRGSDFANIGPMYPLDPFTLNLLSDSGSRYVKCTIELEQNSELLKPELDKKVPVIRDIIIRTLTAKTFEEVSTQKGKERLKDELVGKINEILTDGFIKNVYFTDFVVS",stoichiometry N,[3],4
"PflCN (Δ236–349), recombinant (domain or fragment) GIERPKFEDFLAGYERNKASMLNYEGMPAFALSENLLAVLKQPNTKLNKYVKYDPFLNLYLVRTDFSLIPTPMGDEEKLTRNDWVGIWDPNKPYIGHIKYLAQNIDEKDQLDFNSKIGLLGTPCCEMMGIALNNSSFIGNRYLKHFMKYNDVYWGDIGVDFVVRENKIYVNNVRKNPQFLINDQVISVDGLPANDLRKLNEKILFADRGSTLYFQVLRDNSGGDGKFQFFIRLTK",stoichiometry N,[4],2
